# Test results published in paper PMC8930771, “Structural basis of phosphatidylinositol 3-kinase C2α function” (Nature Structural & Molecular Biology, 2022).
# B1: PI3KC2α^ΔN+ΔPX−C2 WT (mouse PI3KC2α amino acids 377–1,400) [mouse] / GST-distal C2 (PI3KC2α amino acids 1,561–1,686) [mouse] (parent complex)
# chain 1: VQNDEVAAFCQSIMKLKTKFPYTDHCTNPGYLLSPVTVQRNMCGENASVKVSIEIEGLQLPVTFTCDVSSTVEIIIMQALCWVHDDLNQVDVGSYILKVCGQEEVLQNNHCLGSHEHIQNCRKWDTEIKLQLLTLSAMCQNLARTAEDDEAPVDLNKYLYQIEKPYKEVMTRHPVEELLDSYHYQVELALQTENQHRAVDQVIKAVRKICSALDGVETPSVTEAVKKLKRAVNLPRNKSADVTSLSGSDTRKNSTKGSLNPENPVQVSMDHLTTAIYDLLRLHANSSRCSTACPRGSRNIKEAWTATEQLQFTVYAAHGISSNWVSNYEKYYLICSLSHNGKDLFKPIQSKKVGTYKNFFYLIKWDELIIFPIQISQLPLESVLHLTLFGVLNQSSGSSPDSNKQRKGPEALGKVSLTLFDFKRFLTCGTKLLYLWTSSHTNSIPGAIPKKSYVMERIVLQVDFPSPAFDIIYTSPQIDRNIIQQDKLETLESDIKGKLLDIIHRDSSFGLSKEDKVFLWENRYYCLKHPNCLPKILASAPNWKWANLAKTYSLLHQWPPLCPLAALELLDAKFADQEVRSLAVSWMEAISDDELADLLPQFVQALKYEIYLNSSLVRFLLSRALGNIQIAHSLYWLLKDALHDTHFGSRYEHVLGALLSVGGKGLREELSKQMKLVQLLGGVAEKVRQASGSTRQVVLQKSMERVQSFFLRNKCRLPLKPSLVAKELNIKSCSFFSSNAMPLKVTMVNADPLGEEINVMFKVGEDLRQDMLALQMIKIMDKIWLKEGLDLRMVIFRCLSTGRDRGMVELVPASDTLRKIQVEYGVTGSFKDKPLAEWLRKYNPSEEEYEKASENFIYSCAGCCVATYVLGICDRHNDNIMLRSTGHMFHIDFGKFLGHAQMFGSFKRDRAPFVLTSDMAYVINGGEKPTIRFQLFVDLCCQAYNLIRKQTNLFLNLLSLMIPSGLPELTSIQDLKYVRDALQPQTTDAEATIFFTRLIESSLGSIATKFNFFIHNLAQLRFSG
# chain 2: GAVKLSVSYRNGTLFIMVMHIKDLVTEDGADPNPYVKTYLLPDTHKTSKRKTKISRKTRNPTFNEMLVYSGYSKETLRQRELQLSVLSAESLRENFFLGGITLPLKDFNLSKETVKWYQLTAATYL
# Variants of: B1
# Assay: GST pull-down, SDS-PAGE with Coomassie Blue staining, quantified with ImageJ; n = 3; binding of WT set to 100%; parent: 100; read off a plot
row,percent of parent,Variant
1,~42%,"chain 1 K50A, chain 1 W82A, chain 1 D85A, chain 1 D86A"
